For 23 molecules, Kd and IC50 results are on record in PMC5148741 (Journal of the American Chemical Society, 2016).

Ends that are not written are not given here. * marks the point of attachment. FITC = O=C1OC2(c3ccc(O)cc3Oc3cc(O)ccc32)c2ccc(NC(=S)*)cc21

Assay in all cases: fluorescence polarisation
Assay [1] has as its target maltose-binding protein (MBP) tagged TbtB.
The target in assay [2] is MBP-TbtD.
Assay [3] concerns the target MBP-TbtD. The source holds these as a separate data set.
Assay [4] addresses TbtF.

With {FITC}-MDLNDLPMDVFELADSGVAVESLTAGHGMTEVGA [synthetic TbtA leader peptide derivatized with fluorescein isothiocyanate (FITC) at the N-terminus], the Kd in assay [1] was approximately 20 µM; in assay [2], approximately 0.14 µM.
With MDANDLPMDVFELADSGVAVESLTAGHGMTEVGASCNCFCYICCSCSSA [TbtA L(−32)A], the IC50 in assay [3] stood at 1.71 ± 0.47 µM; in assay [4], 1.58 ± 0.36 µM.
For MDLNDLPMDVFELADSGVAVESLTAGHGATEVGASCNCFCYICCSCSSA [TbtA M(−6)A] the same measures were 0.49 ± 0.07 µM and 0.45 ± 0.03 µM.
For MDLNDLPMDVFELADAGVAVESLTAGHGMTEVGASCNCFCYICCSCSSA [TbtA S(−19)A] the same measures were 0.91 ± 0.11 µM and 1.57 ± 0.46 µM.
For MDLNDLPMDAFELADSGVAVESLTAGHGMTEVGASCNCFCYICCSCSSA [TbtA V(−25)A] the same measures were 2.25 ± 0.2 µM and 0.62 ± 0.04 µM.
Regarding MALNDLPMDVFELADSGVAVESLTAGHGMTEVGASCNCFCYICCSCSSA [TbtA D(−33)A], the results for the IC50 in assay [3] and in assay [4] were 0.72 ± 0.07 µM and 0.99 ± 0.22 µM, respectively.
The matching figures for MDLNDAPMDVFELADSGVAVESLTAGHGMTEVGASCNCFCYICCSCSSA [TbtA L(−29)A]: more than 10 µM and more than 10 µM.
The matching figures for MDLNDLPMDVFELADSGVAVESLTAGHGMTEVGASCNCFCYICCSCSSA [TbtA wild-type]: 0.61 ± 0.03 µM and 0.67 ± 0.03 µM.
The matching figures for MDLNDLPMDVFELADSGVAAESLTAGHGMTEVGASCNCFCYICCSCSSA [TbtA V(−15)A]: 1.06 ± 0.06 µM and 0.63 ± 0.06 µM.
Turning to MDLNDLPMDVFALADSGVAVESLTAGHGMTEVGASCNCFCYICCSCSSA [TbtA E(−23)A], the results for the IC50 in assay [3] and in assay [4] were 3.46 ± 0.57 µM and 1.27 ± 0.15 µM, respectively.
For MDLNDLPMDVFELADSGVAVESLTAGHGMTEAGASCNCFCYICCSCSSA [TbtA V(−3)A] the same measures were 1.35 ± 0.14 µM and 0.58 ± 0.05 µM.
For MDLNDLPMAVFELADSGVAVESLTAGHGMTEVGASCNCFCYICCSCSSA [TbtA D(−26)A] the same measures were 6 ± 0.41 µM and 8.23 ± 1.45 µM.
With MDLNDLPMDVFELAASGVAVESLTAGHGMTEVGASCNCFCYICCSCSSA [TbtA D(−20)A], the IC50 in assay [3] stood at 4.13 ± 1.62 µM; in assay [4], 1.45 ± 0.46 µM.
For MDLNDLPMDVAELADSGVAVESLTAGHGMTEVGASCNCFCYICCSCSSA [TbtA F(−24)A] the same measures were 1.51 ± 0.09 µM and more than 10 µM.
For MDLNDLPMDVFELADSGVAVESLTAGHGMTAVGASCNCFCYICCSCSSA [TbtA E(−4)A] the same measures were 0.7 ± 0.02 µM and 0.53 ± 0.03 µM.
The matching figures for MDLNDLPMDVFELADSGVAVESLTAGAGMTEVGASCNCFCYICCSCSSA [TbtA H(−8)A]: 3.68 ± 0.31 µM and 0.98 ± 0.06 µM.
Take MDLNALPMDVFELADSGVAVESLTAGHGMTEVGASCNCFCYICCSCSSA [TbtA D(−30)A]: the IC50 in assay [3] worked out at 7.28 ± 0.77 µM; in assay [4], 0.94 ± 0.2 µM.
Take MDLNDLPMDVFELADSGVAVESATAGHGMTEVGASCNCFCYICCSCSSA [TbtA L(−12)A]: the values for the IC50 in assay [3] and in assay [4] were 3.29 ± 0.68 µM and 0.7 ± 0.04 µM, respectively.
In the case of MDLNDLPMDVFELADSGVAVESLAAGHGMTEVGASCNCFCYICCSCSSA [TbtA T(−11)A], the IC50 in assay [3] came out at 0.45 ± 0.02 µM; in assay [4] it was 0.51 ± 0.06 µM.
For MDLNDLPMDVFELADSGVAVASLTAGHGMTEVGASCNCFCYICCSCSSA [TbtA E(−14)A] the same measures were 4.47 ± 0.96 µM and 1.37 ± 0.15 µM.
The matching figures for MDLADLPMDVFELADSGVAVESLTAGHGMTEVGASCNCFCYICCSCSSA [TbtA N(−31)A]: 1.13 ± 0.08 µM and 0.57 ± 0.07 µM.
The matching figures for MDLNDLPMDVFELADSGVAVEALTAGHGMTEVGASCNCFCYICCSCSSA [TbtA S(−13)A]: 2.76 ± 0.18 µM and 1.41 ± 0.07 µM.
As for MDLNDLPMDVFELADSGAAVESLTAGHGMTEVGASCNCFCYICCSCSSA [TbtA V(−17)A], the IC50 in assay [3] stood at 0.69 ± 0.04 µM; in assay [4], 0.49 ± 0.05 µM.
